Results from patent US20220227882A1 (TRUSTEES OF TUFTS COLLEGE, published 2022).

T1: V459A (Homo sapiens, UniProt P78325)
T1 construct: expressed on HEK293 cells; also called human ADAM8 point mutant V459A
T1 sequence (ADAM8, looked up): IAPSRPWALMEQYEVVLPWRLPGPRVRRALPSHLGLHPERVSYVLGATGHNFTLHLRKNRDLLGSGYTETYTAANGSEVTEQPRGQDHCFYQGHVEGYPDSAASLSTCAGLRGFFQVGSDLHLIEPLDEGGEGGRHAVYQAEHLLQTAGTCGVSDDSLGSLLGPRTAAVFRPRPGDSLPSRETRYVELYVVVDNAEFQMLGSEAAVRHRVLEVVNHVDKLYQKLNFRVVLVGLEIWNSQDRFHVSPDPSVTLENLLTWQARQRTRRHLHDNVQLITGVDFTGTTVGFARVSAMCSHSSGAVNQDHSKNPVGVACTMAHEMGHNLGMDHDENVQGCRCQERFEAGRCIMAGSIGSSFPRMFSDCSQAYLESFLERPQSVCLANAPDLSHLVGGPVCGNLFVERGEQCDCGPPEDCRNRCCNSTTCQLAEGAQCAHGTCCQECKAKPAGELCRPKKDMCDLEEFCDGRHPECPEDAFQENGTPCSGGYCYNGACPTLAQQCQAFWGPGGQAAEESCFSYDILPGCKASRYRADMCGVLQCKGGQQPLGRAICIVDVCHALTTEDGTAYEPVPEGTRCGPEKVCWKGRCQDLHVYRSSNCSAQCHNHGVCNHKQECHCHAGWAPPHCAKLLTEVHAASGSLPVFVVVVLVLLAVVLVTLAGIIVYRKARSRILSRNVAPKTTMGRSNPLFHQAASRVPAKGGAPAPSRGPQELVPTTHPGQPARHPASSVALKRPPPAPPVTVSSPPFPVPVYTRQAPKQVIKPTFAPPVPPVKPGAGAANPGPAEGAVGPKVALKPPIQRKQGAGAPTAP

T2: Recombinant human ADAM9 (R&D Systems, 939-AD-020) (human, UniProt Q13443 29-697)
T2 sequence (looked up): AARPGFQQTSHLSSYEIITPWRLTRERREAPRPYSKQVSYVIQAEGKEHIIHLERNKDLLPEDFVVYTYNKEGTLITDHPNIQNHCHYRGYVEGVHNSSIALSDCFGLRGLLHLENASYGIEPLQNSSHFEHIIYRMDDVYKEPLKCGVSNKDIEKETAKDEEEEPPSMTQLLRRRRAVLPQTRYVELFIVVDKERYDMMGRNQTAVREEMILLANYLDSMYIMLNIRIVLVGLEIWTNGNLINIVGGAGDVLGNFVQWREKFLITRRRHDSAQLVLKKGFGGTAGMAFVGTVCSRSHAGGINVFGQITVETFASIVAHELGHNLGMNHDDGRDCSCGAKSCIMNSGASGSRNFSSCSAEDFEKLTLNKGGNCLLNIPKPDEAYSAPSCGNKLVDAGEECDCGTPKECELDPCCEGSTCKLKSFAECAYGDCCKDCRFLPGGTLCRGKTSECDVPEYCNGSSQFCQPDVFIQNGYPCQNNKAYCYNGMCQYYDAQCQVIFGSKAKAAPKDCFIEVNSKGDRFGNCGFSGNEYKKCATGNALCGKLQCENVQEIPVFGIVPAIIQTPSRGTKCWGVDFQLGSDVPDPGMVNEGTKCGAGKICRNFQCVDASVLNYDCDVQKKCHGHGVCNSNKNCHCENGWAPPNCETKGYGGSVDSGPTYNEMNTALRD


Tests used:
V459A = target: T1, V459A; assay: high-throughput flow cytometry, HEK293 cells with mutant ADAM8, high stringency; range in parentheses
Protocol: A variety of experimental parameters were optimized for high-throughput flow cytometry including blocking buffer, and primary and secondary antibody concentrations, to identify the optimal conditions for screening. Through these studies ADP2 and ADP13 were determined to be high affinity binding antibodies.
Thus, for these studies antigen-binding fragments (Fabs) of ADP2 and ADP13, which bind with lower affinity than the full antibody, were generated. In addition, higher binding stringency conditions were tested, such as increased pH, salinity, and temperature, and/or increased washing, to weaken binding sufficiently to allow identification of critical binding residues in flow cytometry. The final experimental flow cytometry conditions were: primary antibody incubation with ADP2 Fab (0.50 μg/ml), ADP13 Fab (5.00 μg/ml) and Control Ab (0.16 μg/ml) for 60 minutes in flow cytometry buffer containing 10% goat serum in PBS (Ca²⁺ and Mg²⁺ free). […] Samples were washed three times after primary antibody incubation and twice after secondary antibody incubation with PBS (Ca²⁺ and Mg′ free). Next, HEK293 cells expressing WT or mutated ADAM8 proteins or EV DNA were incubated with ADP2 or ADP13 Fabs or Control Ab at their optimal concentrations. Fab binding was detected using Alexa Fluor 488-conjugated secondary antibodies and mean cellular fluorescence determined using the Intellicyt iQue flow cytometry platform. […] This counter-screen strategy facilitates the exclusion of mutants that are locally misfolded or that have an expression defect. Binding of each test Fab to each mutant clone in the alanine scanning library was determined, in duplicate, by high-throughput flow cytometry.

[1] = target: T2, Recombinant human ADAM9 (R&D Systems, …); assay: ELISA, recombinant ADAM9
Protocol: ELISA assays were also used to test hybridoma clones, subclones and purified ADP antibodies for specificity of ADAM8 binding, i.e., binding to rHuADAM8 (Acro Biosystems, AD8-H5223) was compared to binding to closely related recombinant human ADAM proteins: […], ADAM12 (Acro Biosystems, AD2-H5228) and ADAM15 (Sino Biological, 10517-H08H). For analysis of clones and subclones, 50 μl of cell supernatants were used. A test bleed sample (1:1000) was used as a positive control. Hybridoma culture medium or a pre-bleed serum sample (1:1000) was used as a negative control. Purified mouse ADPs were assessed at 1 μg/ml vs normal mouse IgG and with a test bleed sample as a positive control. ADP binding was detected with a goat anti-mouse IgG (Fc specific)-peroxidase antibody (1:5000, Sigma-Aldrich, A0168).

Row | Binder | Binding Reactivity (% WT) (V459A) | binding result [1]
1 | ADP2 Fab (Fab, V domains shown) VH: EVKLVESGGGLVQPGGSLSLSCAASGFSFPDYYMSWVRQPPGKALEWLGFIRDSANGYTTEYIASVKGRFTFSRDNSQSILYLQMNALRAEDSATYYCARYSRYYGMDYWGQGTSVTVSS VL: SIVMTQTPKILLVSAGDRVTITCKASQTVNYDVAWYQQKPGQSPKPVIYFASNRYTGVPDRFTGSGFGTDFTFTISTVQAEDLAVYFCQQDYSAPWTFGGGTKLEIK | 55.6 | 
2 | ADP3 (antibody, IgG1, V domains shown) VH: EVKLEESGGGLVQPGGSMKLSCAASGFTFSDAWMDWVRQSPEKGLEWVAEIRGKVNNLATYYVESVKGRFTISRDDSKSSVYLQMNSLRAEDTGIYYCLGRYDATYAMDYWGQGTSVTVSS VL: DVVMTQTPLSLPVSLGDQASISCRSSQSLVHSDGNTYLHWYLQKPGQSPKLLIYKLSNRFSGVPDRFSGSGSGTDFTLKISRVEAEDLGVYFCSQSTHVPWTFGGGTKLEIK |  | no binding (tested: 1 µg/ml)
